PMC11381544 (Nature Communications, 2024)
Numbering of substitutions follows the chain as printed. Names may count otherwise.

B1: PCP-P3H1D589A: PCP complex with P3H1 active-site mutation D589A (protein)
chain: EVESEAGWGMVTPDLLFAEGTAAYARGDWPGVVLSMERALRSRAALRALRLRCRTQCAADFPWELDPDWSPSPAQASGAAALRDLSFFGGLLRRAACLRRCLGPPAAHSLSEEMELEFRKRSPYNYLQVAYFKINKLEKAVAAAHTFFVGNPEHMEMQQNLDYYQTMSGVKEADFKDLETQPHMQEFRLGVRLYSEEQPQEAVPHLEAALQEYFVAYEECRALCEGPYDYDGYNYLEYNADLFQAITDHYIQVLNCKQNCVTELASHPSREKPFEDFLPSHYNYLQFAYYNIGNYTQAVECAKTYLLFFPNDEVMNQNLAYYAAMLGEEHTRSIGPRESAKEYRQRSLLEKELLFFAYDVFGIPFVDPDSWTPEEVIPKRLQEKQKSERETAVRISQEIGNLMKEIETLVEEKTKESLDVSRLTREGGPLLYEGISLTMNSKLLNGSQRVVMDGVISDHECQELQRLTNVAATSGDGYRGQTSPHTPNEKFYGVTVFKALKLGQEGKVPLQSAHLYYNVTEKVRRIMESYFRLDTPLYFSYSHLVCRTAIEEVQAERKDDSHPVHVANCILNAETLVCVKEPPAYTFRDYSAILYLNGDFDGGNFYFTELDAKTVTAEVQPQCGRAVGFSSGTENPHGVKAVTRGQRCAIALWFTLDPRHSERDRVQADDLVKMLFSPEEMDLSQEQPLDAQQGPPEPAQESLSGSESKPKDEL
B2: R76D^P3H1 (protein)
chain: B1 chain with R54D, A567D
B3: D106A/D^P3H1 (protein, UniProt Q32P28 23-736, looked up, variant D106A)
Prolyl 3-hydroxylase 1: B1 chain with D84A, A567D
B4: PCP-P3H1H587A: PCP complex with P3H1 active-site mutation H587A (protein)
chain: B1 chain with H565A, A567D
B5: PCP-P3H1R669A: PCP complex with P3H1 active-site mutation R669A (protein)
chain: B1 chain with A567D, R647A
B6: PCP-P3H1W675L: PCP complex with OI-related P3H1 mutation W675L near the active site (protein)
chain: B1 chain with A567D, W653L
B7: P3H1/CRTAP: purified P3H1/CRTAP binary complex obtained when PPIB was excluded from co-transfection (protein)
chain 1: B1 chain with A567D
chain 2: QYERYSFRSFPRDELMPLESAYRHALDKYSGEHWAESVGYLEISLRLHRLLRDSEAFCHRNCSAAPQPEPAAGLASYPELRLFGGLLRRAHCLKRCKQGLPAFRQSQPSREVLADFQRREPYKFLQFAYFKANNLPKAIAAAHTFLLKHPDDEMMKRNMAYYKSLPGAEDYIKDLETKSYESLFIRAVRAYNGENWRTSITDMELALPDFFKAFYECLAACEGSREIKDFKDFYLSIADHYVEVLECKIQCEENLTPVIGGYPVEKFVATMYHYLQFAYYKLNDLKNAAPCAVSYLLFDQNDKVMQQNLVYYQYHRDTWGLSDEHFQPRPEAVQFFNVTTLQKELYDFAKENIMDDDEGEVVEYVDDLLELEETS
modifications: left off: twin Strep tag, C-terminal, kept
B8: PCP-P3H1H659A: PCP complex with P3H1 active-site mutation H659A (protein)
chain: B1 chain with A567D, H637A

Assays:
[1] = tested on: P3H1 within the PCP complex; assay: 2-OG dependent oxygenase activity; assay type: biochemical, human; details: Succinate-Glo assay, Fig. 1g, Fig. 3f, Supplementary Fig. 1f
CRTAP and PPIB = assay: Co-purification / SDS-PAGE of PCP complex with P3H1 mutants; assay type: binding, human; details: co-expression with CRTAP and PPIB, Supplementary Fig. 1c
CRTAP = assay: Strep-tactin pulldown, P3H1 mutants with CRTAP; assay type: binding, human; details: P3H1 mutations at the X-interface, Fig. 2g

| Molecule | 2OG-Fe (II) oxygenase / P3H1 activity, in words [1] | PCP complex formation of P3H1 active mutants (CRTAP and PPIB) | formation of the PCP complex (CRTAP) | 2OG-Fe (II) oxygenase / P3H1 activity, in words ([1]; listed as W675L^P3H1) |
| --- | --- | --- | --- | --- |
| B1 | significantly decreased 2OG-dependent oxygenase activities | could form PCP complex with CRTAP and PPIB |  |  |
| B2 |  |  | significantly decrease the formation of the PCP complex |  |
| B3 |  |  | significantly decrease the formation of the PCP complex |  |
| B4 | significantly decreased 2OG-dependent oxygenase activities | could form PCP complex with CRTAP and PPIB |  |  |
| B5 | significantly decreased 2OG-dependent oxygenase activities | could form PCP complex with CRTAP and PPIB |  |  |
| B6 |  |  |  | reduced enzymatic activities |
| B7 | elevated P3H1 activities |  |  |  |
| B8 | significantly decreased 2OG-dependent oxygenase activities | could form PCP complex with CRTAP and PPIB |  |  |
